According to patent US20110262366A1:
No end group written: not given here.

What was measured:
[1] = target: endothelial cell receptor on HAEC (human aortic endothelial cells); test: competition, 200 µM free TKPPR against TKPPR-beads (competitor) on HAEC, static, n = 11
[2] = target: endothelial cell receptor on HAEC (human aortic endothelial cells); test: competition against 1% DPPE-GTKPPR microbubbles (competitor) on HAEC, static
[3] = target: endothelial cell receptor on HAEC (human aortic endothelial cells); test: competition, 50 µM free TKPPR against 5% BRU-114 microbubbles (competitor) on HAEC, static
[4] = target: endothelial cell receptor on HAEC (human aortic endothelial cells); test: competition, 25 µM free TKPPR against 2% BRU-114 microbubbles (competitor) on HAEC, static
[5] = target: endothelial cell receptor on HAEC (human aortic endothelial cells); test: competition, 50 µM free TKPPR against 1% BRU-114 microbubbles (competitor) on HAEC, static
[6] = target: endothelial cell receptor on HAEC (human aortic endothelial cells); test: competition, free TKPPR 100 µM (head prints 100 µmol) against 1% DPPE-GTKPPR microbubbles (competitor) on HAEC, static
[7] = target: endothelial cell receptor on HAEC (human aortic endothelial cells); test: competition, 100 µM free TKPPR against 5% DPPE-GTKPPR microbubbles (competitor) on HAEC, static
[8] = target: endothelial cell receptor on HAEC (human aortic endothelial cells); test: competition, 50 µM free TKPPR against 1% DPPE-GTKPPR microbubbles (competitor) on HAEC, static
[9] = target: endothelial cell receptor on HAEC (human aortic endothelial cells); test: competition, 10 µM free TKPPR against TKPPR-beads (competitor) on HAEC, static, n = 11
[10] = target: endothelial cell receptor on HAEC (human aortic endothelial cells); test: competition, 50 µM free TKPPR against 10% BRU-114 microbubbles (competitor) on HAEC, static
[11] = target: endothelial cell receptor on HAEC (human aortic endothelial cells); test: competition, 100 µM free TKPPR against 1% BRU-114 microbubbles (competitor) on HAEC, static
[12] = target: endothelial cell receptor on HAEC (human aortic endothelial cells); test: competition, 25 µM free TKPPR against 1% BRU-292 microbubbles (competitor) on HAEC, static
[13] = target: endothelial cell receptor on HAEC (human aortic endothelial cells); test: competition against 5% DPPE-GTKPPR microbubbles (competitor) on HAEC, static

B1: TKPPR-OH (L-threonyl-L-lysyl-L-prolyl-L-prolyl-L-arginine) (peptide)
peptide: TKPPR-OH
B1 showed a % Inhibition [1] of 72.2%, a % inhibition of bubble binding [2] of 82.7% and a Bubbles Bound in presence of competitor [3] of 440 bubbles. The Bubbles Bound % (of control binding) [4] was 16 % of control, the Bubbles Bound in presence of competitor [5] was 56 bubbles and the Bubbles Bound in presence of competitor [6] was 5 bubbles. It also gave an HAEC bubbles bound in presence of competitor [7] of 58 bubbles, an Average % Inhibition [8] of 92.7% and a % Inhibition [9] of 30.8%. The Bubbles Bound in presence of competitor [10] was 857 bubbles, the Bubbles Bound in presence of competitor [11] was 4 bubbles and the Bubbles Bound in presence of competitor [12] was 718 bubbles. It also gave a % more bubbles bound [13] of 19%.
